Substitutions are numbered along the chain they refer to.
B1: F010302336 (VHH)
VHH: EVQLVESGGGVVQPGGSLRLSCAASHRQFIRDVFTGWYRRAPGKQRELVARIYNEGNTQYADSAKGRFTISRDNAKKTVYLQMNSLRPEDTALYYCLFSGTISTGREYRSGDYWGQGTLVTVSS
B2: F010302354 (VHH)
VHH: B1 VHH with Q28A, N54E, E55S, A64V
B3: F010302346 (VHH)
VHH: B1 VHH with Q28A, R40Q, N54E, E55S
B4: F010302337 (VHH)
VHH: B1 VHH with N54E, E55G
B5: F010302343 (VHH)
VHH: B1 VHH with H26S, R40Q, N54E, E55S
B6: F010302348 (VHH)
VHH: B1 VHH with Q28A, V33L, R40Q, N54E, E55S, Q59N
B7: F010302338 (VHH)
VHH: B1 VHH with Q28A, N54E, E55S
B8: F010302350 (VHH)
VHH: B1 VHH with H26S, A64V
B9: F010302347 (VHH)
VHH: B1 VHH with Q28A, R40Q, N54E, E55G
B10: F010302340 (VHH)
VHH: B1 VHH with Q28A, V33L, N54E, E55S, Q59N
B11: F010302344 (VHH)
VHH: B1 VHH with R40Q
B12: F010302351 (VHH)
VHH: B1 VHH with H26S, N54E, E55S, A64V
B13: F010302339 (VHH)
VHH: B1 VHH with Q28A, N54E, E55G
B14: F010302353 (VHH)
VHH: B1 VHH with N54E, E55G, A64V
B15: F010302342 (VHH)
VHH: B1 VHH with H26S, R40Q
B16: F010302341 (VHH)
VHH: B1 VHH with H26S, R40Q, Q59N
B17: F010302352 (VHH)
VHH: B1 VHH with A64V

target: T1, huNav1.7α + β1-β2-β3 (human, UniProt Q15858 1-1988; A5A6L6 19-218; O60939 30-215; Q2KI11 23-215); assay: binding FACS, CHO FlpIn cells
T1 construct: Cell line (CHO FlpIn, HEK FlpIn, transient HEK293T) is named under assay; also called huNav1.7-beta1-beta2-beta3; human Nav1.7α with Navβ1, Navβ2 and Navβ3
Procedure: (§1) Binding of the ISVDs to cell-expressed Nav1.7α was detected via murine anti-Flag (Sigma, catalog #F1804). Briefly, cells were resuspended in FACS buffer (PBS, 10% FBS, NaN₃) and transferred to a 96-well V-bottom plate at 1×10^5 cells/well. Purified FLAG3-tagged ISVD was diluted in FACS buffer and added to the cells for 30 minutes at 4° C. […] Prior to the read-out, the samples were resuspended in 1 μg/mL propidium iodide (Sigma, catalog #P4170) to exclude dead cells. Between each step, the cells were centrifuged for 5 minutes at 200 grams and washed with 100 μL/well FACS buffer.

Bmax [%]	EC50 [nM]	Binder
100	3.6	B1
100	4.2	B2
100	5	B3
100	3.9	B4
100	6.4	B5
100	6.7	B6
100	3.4	B7
100	3.5	B8
100	4.6	B9
100	4.6	B10
100	4.3	B11
100	5.6	B12
100	4.3	B13
100	4.2	B14
100	4	B15
100	5.3	B16
100	3.6	B17

target: T2, rhNav1.7α + β1-β2-β3 (rhesus monkey); assay: binding FACS, CHO FlpIn cells
T2 construct: also called rhNav1.7-beta1-beta2-beta3; rhesus Nav1.7α
Procedure: as §1

Bmax [%]	EC50 [nM]	binding result	Binder
79	9.7		B1
96	7.9		B2
99	12		B3
100	6.8		B4
84	18		B5
95	14		B6
100	7.9		B7
46	15		B8
100	9.6		B9
96	13		B10
78	13		B11
72	15		B12
100	6.8		B13
93	7.9		B14
61	16		B15
		no binding	B16
60	11		B17
